Common to all, as to test: cell-based or functional assay
Assay [1] addresses IL-2R on human cells (activated CD4 T cells, PBMC subsets, NK92) (human) (UniProt P14784). Also on record: AUC of STAT5-P on PD1+ T cells / AUC of STAT5-P on PD1-blocked T cells: unit not given beside the values.
Assay [2] shares this target. Also on record: EC50 on MFI of STAT5-P, PD-1+ CD4 T cells: unit not given beside the values.
Assay [3] has the same target.

IL-2R on human cells (activated CD4 T cells, PBMC subsets, NK92) (human), sequence (P14784 27-551, chain 1 of 2): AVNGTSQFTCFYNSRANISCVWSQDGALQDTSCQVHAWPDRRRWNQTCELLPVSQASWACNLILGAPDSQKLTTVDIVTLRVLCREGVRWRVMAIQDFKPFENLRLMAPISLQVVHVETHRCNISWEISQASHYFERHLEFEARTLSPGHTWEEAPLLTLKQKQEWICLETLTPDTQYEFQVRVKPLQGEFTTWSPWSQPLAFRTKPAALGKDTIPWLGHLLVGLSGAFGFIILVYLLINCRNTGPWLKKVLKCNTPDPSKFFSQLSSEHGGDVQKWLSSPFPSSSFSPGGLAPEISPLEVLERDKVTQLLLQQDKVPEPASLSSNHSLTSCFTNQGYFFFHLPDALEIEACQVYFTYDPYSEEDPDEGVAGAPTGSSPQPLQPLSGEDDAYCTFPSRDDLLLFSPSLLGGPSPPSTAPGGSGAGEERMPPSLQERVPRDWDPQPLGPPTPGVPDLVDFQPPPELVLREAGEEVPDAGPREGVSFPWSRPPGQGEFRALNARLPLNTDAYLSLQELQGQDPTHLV
IL-2R on human cells (activated CD4 T cells, PBMC subsets, NK92) (human), sequence (P31785 23-369, chain 2 of 2, further chain): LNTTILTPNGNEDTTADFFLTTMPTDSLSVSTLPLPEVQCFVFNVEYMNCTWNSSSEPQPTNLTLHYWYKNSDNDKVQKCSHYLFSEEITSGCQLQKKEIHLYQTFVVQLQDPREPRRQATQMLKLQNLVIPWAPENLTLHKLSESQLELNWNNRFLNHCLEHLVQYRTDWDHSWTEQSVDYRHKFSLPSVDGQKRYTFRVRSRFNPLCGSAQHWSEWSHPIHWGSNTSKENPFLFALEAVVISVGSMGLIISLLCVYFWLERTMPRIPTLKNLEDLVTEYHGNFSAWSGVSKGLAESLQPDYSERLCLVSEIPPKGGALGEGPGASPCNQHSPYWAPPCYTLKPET

In assay [1], FAP-IL2v displayed an AUC of STAT5-P on PD1+ T cells of 144, an AUC of STAT5-P on PD1-blocked T cells of 142 and a Potency reduction vs PD1-IL2v of 8.13 fold. Moreover, in assay [2], the EC50 on MFI of STAT5-P, PD-1+ CD4 T cells was 8530; the Potency reduction versus PD1-IL2v (MFI) came to 12.6 fold; the Potency reduction versus PD1-IL2v (frequency) stood at 12.9 fold. Also, in assay [3], the Percentage of internalization (0.6 nM, activated CD4 T cells, 3 h at 37 C) is 89.8% and the Potency reduction vs PD1-IL2v on PD-1+ LAG-3+ T cells is 107 fold.

Values taken from patent US20260083855A1.
